Results taken from article PMC9858354, “Studies with neutralizing antibodies suggest CXCL8-mediated neutrophil activation is independent of C-C motif chemokine receptor-like 2 (CCRL2) ligand binding function” (PLOS ONE, 2023).
Each block holds one binder with its values, some of them ahead of it.

How the values were obtained:
Settings in all cases: one partner purified
[1] = target: T1, mouse C-C motif chemokine receptor-like 2 (CCRL2) isoform b, on HEK-muCCRL2 cells (mouse, UniProt O35457 1-360); assay: flow cytometry on cells; competition: HEK-huCCRL2 or HEK-muCCRL2 cells incubated with serially diluted unlabeled competitor at 4°C 45 min, then 10 nM biotin-labeled chemerin at 4°C 45 min, RRX-streptavidin; IC50 from four-parameter fit
T1 construct: C-C motif chemokine receptor-like 2 (CCRL2), mouse, printed as isoform b, codon optimized cDNA; also called murine CCRL2
T1 sequence (looked up): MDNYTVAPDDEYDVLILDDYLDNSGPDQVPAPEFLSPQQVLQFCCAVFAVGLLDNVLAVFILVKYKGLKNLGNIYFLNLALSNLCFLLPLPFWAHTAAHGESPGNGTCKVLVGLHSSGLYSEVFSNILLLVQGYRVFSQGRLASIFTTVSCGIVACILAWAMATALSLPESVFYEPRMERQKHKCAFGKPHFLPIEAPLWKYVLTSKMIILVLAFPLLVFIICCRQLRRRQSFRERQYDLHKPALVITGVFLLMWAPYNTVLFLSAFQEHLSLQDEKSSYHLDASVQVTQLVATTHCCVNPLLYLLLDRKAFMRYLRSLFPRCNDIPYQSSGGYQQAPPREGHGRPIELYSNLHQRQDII

[2] = target: T1, mouse C-C motif chemokine receptor-like …; assay: flow cytometry on cells; serially diluted biotin-labeled ligand on HEK-huCCRL2, HEK-muCCRL2 or parental HEK cells (2x10^4 cells/well, 384-well), PBS + 0.1% BSA, 4°C 45 min, detected with RRX-streptavidin; MFI normalized to parental HEK cell binding; EC50 from four-parameter fit
[3] = target: T2, human C-C motif chemokine receptor-like 2 (CCRL2) isoform b, on HEK-huCCRL2 cells (human, UniProt O00421 1-344); assay: as above
T2 construct: C-C motif chemokine receptor-like 2 (CCRL2), human, isoform b, codon optimized cDNA; No tag is mentioned for the construct; also called human CCRL2
T2 sequence (looked up): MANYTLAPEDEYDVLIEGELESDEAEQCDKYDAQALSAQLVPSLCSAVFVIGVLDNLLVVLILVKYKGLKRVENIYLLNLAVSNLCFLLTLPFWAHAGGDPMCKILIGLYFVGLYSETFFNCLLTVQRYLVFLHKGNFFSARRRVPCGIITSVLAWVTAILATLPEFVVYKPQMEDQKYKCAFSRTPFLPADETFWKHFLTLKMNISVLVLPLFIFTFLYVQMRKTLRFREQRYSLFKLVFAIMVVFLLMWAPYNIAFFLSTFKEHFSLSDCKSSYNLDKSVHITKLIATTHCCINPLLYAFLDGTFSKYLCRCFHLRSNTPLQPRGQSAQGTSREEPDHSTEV

[4] = target: T2, human C-C motif chemokine receptor-like …; assay: SPR; live-cell SPR microscopy (SPRm 200); HEK-huCCRL2 cells seeded on collagen-coated gold slides; analyte injected at 150 ul/min, contact 3 min, dissociation 5 min; running buffer PBS + 0.1% BSA; chemerin 10-400 nM; 1:1 binding model; n = 3
[5] = target: T2, human C-C motif chemokine receptor-like …; assay: flow cytometry on cells; competition: HEK-huCCRL2 or HEK-muCCRL2 cells incubated with serially diluted unlabeled competitor at 4°C 45 min, then 10 nM biotin-labeled chemerin at 4°C 45 min, RRX-streptavidin; IC50 from four-parameter fit

IC50 [1]: 21.1 nM
B1: recombinant active mouse chemerin (residues 21-156), unlabeled (ligand, UniProt Q9DD06 21-156, looked up)
chain: EPELSETQRRSLQVALEEFHKHPPVQLAFQEIGVDRAEEVLFSAGTFVRLEFKLQQTNCPKKDWKKPECTIKPNGRRRKCLACIKMDPKGKILGRIVHCPILKQGPQDPQELQCIKIAQAGEDPHGYFLPGQFAFS
notes: active mouse chemerin, Uniprot entry Q9DD06, residues 21-156; Construct is named hIgG1 monovalent Fc-TEV-chemerin; also called murine chemerin; unlabeled murine chemerin; source: HEK 293F, transient, purified (Protein A, TEV cleavage, Protein A and Ni-NTA removal, Superdex 75 SEC); not shown: Fc (human IgG1, monovalent) with TEV site, N-terminal, cleaved

EC50 [2]: 143 nM
B2: biotin-labeled recombinant active mouse chemerin (residues 21-156) (ligand, UniProt Q9DD06 21-156, looked up)
chain: B1 chain
modifications: biotin (EZ-Link Sulfo-NHS-LC-Biotin, biotin-to-analyte molar ratio 5:1; any reactive primary amine)
notes: active mouse chemerin, Uniprot entry Q9DD06, residues 21-156; also called biotinylated murine chemerin; biotin-labeled murine chemerin; not shown: Fc (human IgG1, monovalent) with TEV site, N-terminal, cleaved

EC50 [3]: 4.2 nM
Kd [4]: 8.55 nM
koff [4]: 0.00184 s⁻¹
kon [4]: 297000 M⁻¹ s⁻¹
B3: biotin-labeled recombinant active human chemerin (residues 21-157) (ligand, UniProt Q99969 21-157, looked up)
chain: ELTEAQRRGLQVALEEFHKHPPVQWAFQETSVESAVDTPFPAGIFVRLEFKLQQTSCRKRDWKKPECKVRPNGRKRKCLACIKLGSEDKVLGRLVHCPIETQVLREAEEHQETQCLRVQRAGEDPHSFYFPGQFAFS
modifications: biotin (EZ-Link Sulfo-NHS-LC-Biotin, biotin-to-analyte molar ratio 5:1; any reactive primary amine)
notes: active human chemerin, Uniprot entry Q99969, residues 21-157; also called Biotin-chemerin; biotinylated chemerin; not shown: Fc (human IgG1, monovalent) with TEV site, N-terminal, cleaved

IC50 [5]: 7.55 nM
Kd [4]: 5.49 nM
koff [4]: 0.00116 s⁻¹
kon [4]: 311000 M⁻¹ s⁻¹
B4: recombinant active human chemerin (residues 21-157), unlabeled (ligand, UniProt Q99969 21-157, looked up)
chain: B3 chain
notes: active human chemerin, Uniprot entry Q99969, residues 21-157; Construct is named hIgG1 monovalent Fc-TEV-chemerin; also called label-free chemerin; unlabeled chemerin; source: HEK 293F, transient, purified (Protein A, TEV cleavage, Protein A and Ni-NTA removal, Superdex 75 SEC); not shown: Fc (human IgG1, monovalent) with TEV site, N-terminal, cleaved
